Measured values as given in paper doi:10.1101/2021.07.08.451689 (bioRxiv, 2021).

B1: MLKL N-terminal domain of 154 amino acid residues with mutation D144K (domain or fragment, human, UniProt Q8NB16 1-154, looked up)
chain: MENLKHIITLGQVIHKRCEEMKYCKKQCRRLGHRVLGLIKPLEMLQDQGKRSVPSEKLTTAMNRFKAALEEANGEIEKFSNRSNICRFLTASQDKILFKDVNRKLSDVWKELSLLLQVEQRMPVSPISQGASWAQEDQQDADEKRRAFQMLRRD
B2: MLKL N-terminal domain of 139 amino acid residues (domain or fragment, human, UniProt Q8NB16 1-139, looked up)
chain: MENLKHIITLGQVIHKRCEEMKYCKKQCRRLGHRVLGLIKPLEMLQDQGKRSVPSEKLTTAMNRFKAALEEANGEIEKFSNRSNICRFLTASQDKILFKDVNRKLSDVWKELSLLLQVEQRMPVSPISQGASWAQEDQQ

Target: the molecule itself
Experiment: SEC

Row | Protein | binding result
1 | B1 | binds
2 | B2 | binds
